# Results: PMC8490876, “Functional Characterization of a L-2-Haloacid Dehalogenase From Zobellia galactanivorans Dsij^T Suggests a Role in Haloacetic Acid Catabolism and a Wide Distribution in Marine Environments” (Frontiers in Microbiology, 2021)
# Target: recombinant ZgHAD, L-2-haloacid dehalogenase of Zobellia galactanivorans Dsij^T (Zobellia galactanivorans Dsij^T)
# Assay: SEC; gel filtration on HiLoad 16/600 Superdex 200 pg after nickel affinity purification; oligomeric state of the recombinant protein in solution
substance,measurement,value
"recombinant ZgHAD, L-2-haloacid dehalogenase of Zobellia galactanivorans Dsij^T (enzyme)",stoichiometry N,2
